Results reported in patent publication US20260108614A1, “IMMOBILIZED ENDOGLYCOSIDASE FUSION PROTEIN AND USE THEREOF” (GENEQUANTUM HEALTHCARE (SUZHOU) CO., LTD., priority 2022, published 2026).

Experiment: Isoelectric point
Format: physicochemical
Conditions: method not stated

B1: Halo-Endo S2-His: endoglycosidase fusion protein: Halo tag, Endo S2 and His tag, SEQ ID NO: 1 (protein)
chain: MAEIGTGFPFDPHYVEVLGERMHYVDVGPRDGTPVLFLHGNPTSSYVWRNIIPHVAPTHRCIAPDLIGMGKSDKPDLGYFFDDHVRFMDAFIEALGLEEVVLVIHDWGSALGFHWAKRNPERVKGIAFMEFIRPIPTWDEWPEFARETFQAFRTTDVGRKLIIDQNVFIEGTLPMGVVRPLTEVEMDHYREPFLNPVDREPLWRFPNELPIAGEPANIVALVEEYMDWLHQSPVPKLLFWGTPGVLIPPAEAARLAKSLPNCKAVDIGPGLNLLQEDNPDLIGSEIARWLSTLEISGGGGGSGGGGSMDKHLLVKRTLGCVCAATLMGAALATHHDSLNTVKAEEKTVQTGKTDQQVGAKLVQEIREGKRGPLYAGYFRTWHDRASTGIDGKQQHPENTMAEVPKEVDILFVFHDHTASDSPFWSELKDSYVHKLHQQGTALVQTIGVNELNGRTGLSKDYPDTPEGNKALAAAIVKAFVTDRGVDGLDIDIEHEFTNKRTPEEDARALNVFKEIAQLIGKNGSDKSKLLIMDTTLSVENNPIFKGIAEDLDYLLRQYYGSQGGEAEVDTINSDWNQYQNYIDASQFMIGFSFFEESASKGNLWFDVNEYDPNNPEKGKDIEGTRAKKYAEWQPSTGGLKAGIFSYAIDRDGVAHVPSTYKNRTSTNLQRHEVDNISHTDYTVSRKLKTLMTEDKRYDVIDQKDIPDPALREQIIQQVGQYKGDLERYNKTLVLTGDKIQNLKGLEKLSKLQKLELRQLSNVKEITPELLPESMKKDAELVMVGMTGLEKLNLSGLNRQTLDGIDVNSITHLTSFDISHNSLDLSEKSEDRKLLMTLMEQVSNHQKITVKNTAFENQKPKGYYPQTYDTKEGHYDVDNAEHDILTDFVFGTVTKRNTFIGDEEAFAIYKEGAVDGRQYVSKDYTYEAFRKDYKGYKVHLTASNLGETVTSKVTATTDETYLVDVSDGEKVVHHMKLNIGSGAIMMENLAKGAKVIGTSGDFEQAKKIFDGEKSDRFFTWGQTNWIAFDLGEINLAKEWRLFNAETNTEIKTDSSLNVAKGRLQILKDTTIDLEKMDIKNRKEYLSNDENWTDVAQMDDAKAIFNSKLSNVLSRYWRFCVDGGASSYYPQYTELQILGQRLSNDVANTLKDHHHHHHHHHH
modifications: Halo-Endo S2-His
With B1 as the molecule, how does the isoelectric point read?
The isoelectric point was 5.5.
